Source: patent US20110288005A1

Target: bovine pancreatic trypsin (Sigma T1426) (bovine) (UniProt P00760)
Assay: cell-based or functional assay

bovine pancreatic trypsin (Sigma T1426) (bovine), sequence (P00760 24-246): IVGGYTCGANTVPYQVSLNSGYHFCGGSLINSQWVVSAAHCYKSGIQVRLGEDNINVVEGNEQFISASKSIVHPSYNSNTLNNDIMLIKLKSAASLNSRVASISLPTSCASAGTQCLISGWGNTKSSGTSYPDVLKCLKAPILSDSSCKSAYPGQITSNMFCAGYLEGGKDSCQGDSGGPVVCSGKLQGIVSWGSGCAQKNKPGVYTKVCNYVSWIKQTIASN

% Activity (compared to positive control plasma-derived aaT) [%]	IC50 (µM), equilibrium trypsin inhibition assay [µM]	Substance
106	0.5	aaT-XTEN_AE576
65	0.82	aaT-XTEN_AE288
